Kd data for five molecules are collected here from patent US20200261603A1 (published 2020).

Substitutions are numbered along the chain they refer to.

The chains are these.
B1: P10-2 Fab DFO (Fab, V domains shown)
VH: QVQLVQSGAEVKKPGASVKVSCKASGYTFTNYGLSWVRQAPGQGLEWMGENHPGSGIIYHNEKFRGRVTLTADRSTSTAYMELSSLRSEDTAVYYCARSSGTRGFDYWGQGTLVTVSS
VL: DVVMTQTPLSLSVTPGQPASISCRSSQSIVHSNGNTYLEWYLQKPGQSPQLLIYRVSNRFSGVPDRFSGSGSGTDFTLKISRVEAEDVGVYYCFQGSHGPWTFGQGTKLEIKR
modifications: p-SCN-Bn-deferoxamine on Lys of the Fab fragment; number and positions not stated; p-SCN-Bn-deferoxamine on Lys of the Fab fragment; number and positions not stated; N-terminal glutamine largely pyroglutamic acid
B2: P10-2 Fab (Fab, V domains shown)
VH: B1 VH
VL: B1 VL
modifications: heavy chain N-terminal glutamine was modified into pyroglutamic acid in a great majority of purified antibodies
B3: P10-1 Fab (Fab, V domains shown)
VH: B1 VH with D106A
VL: B1 VL
B4: P10-1 Fab Dye (Fab, V domains shown)
VH: B1 VH with D106A
VL: B1 VL
modifications: IRDye800CW (NHS ester) on Lys of the Fab fragment; number and positions not stated
B5: P10-2 Fab Dye (Fab, V domains shown)
VH: B1 VH
VL: B1 VL
modifications: IRDye800CW (NHS ester) on Lys of the Fab fragment; number and positions not stated; IRDye800CW (NHS ester) on Lys of the Fab fragment; number and positions not stated; N-terminal glutamine largely pyroglutamic acid

One experiment addresses T1, human cancer-specific MUC1 (human, UniProt P15941 24-1255, cancer-specific incomplete O-glycosylation (T, Tn, 2,3ST) of threonine at position 9 of the 20-amino acid tandem repeat … (SEQ ID NO: 15), as the background describes it). In words: Cell ELISA. In general terms: ELISA stands for enzyme-linked immunosorbent assay.
Take B1: the dissociation constant Kd amounted to 0.36 nM.

Molecule B2 registered a dissociation constant (Kd) of 0.37 nM.

Another experiment addresses T1, human cancer-specific MUC1. Put plainly: Cell ELISA. This is another data set of the same source.
B3 yielded a Kd of 0.35 nM.

As to B4, the Kd came to 0.66 nM.

With B5, the dissociation constant Kd was 0.49 nM.

Molecule B2 had a Kd of 0.29 nM.

What is called Kd is the free concentration of one partner at which half of the binding sites on the other are occupied at equilibrium, for simple one-to-one binding. A lower Kd goes with higher affinity.
